Measurements as given in article PMC5704897 (Molecular cell, 2006).
Like-named read-outs stand apart in the source and are kept apart here. One block for each molecule: values may come before it.

Assays:
Test in all cases: native MS
[1] = target: His6-tagged kinase domain of B-Raf (human) (UniProt P15056)
human Cdc37 (human) [2] = target: human Cdc37 (human) (UniProt Q16543)
human Cdc37 (human) [3] = target: human Cdc37 (human) (UniProt Q16543); remark: listed apart in the source
[4] = target: T1, human Cdc37 (human), Q16543; conditions: remark: other sources report otherwise
T1 chain: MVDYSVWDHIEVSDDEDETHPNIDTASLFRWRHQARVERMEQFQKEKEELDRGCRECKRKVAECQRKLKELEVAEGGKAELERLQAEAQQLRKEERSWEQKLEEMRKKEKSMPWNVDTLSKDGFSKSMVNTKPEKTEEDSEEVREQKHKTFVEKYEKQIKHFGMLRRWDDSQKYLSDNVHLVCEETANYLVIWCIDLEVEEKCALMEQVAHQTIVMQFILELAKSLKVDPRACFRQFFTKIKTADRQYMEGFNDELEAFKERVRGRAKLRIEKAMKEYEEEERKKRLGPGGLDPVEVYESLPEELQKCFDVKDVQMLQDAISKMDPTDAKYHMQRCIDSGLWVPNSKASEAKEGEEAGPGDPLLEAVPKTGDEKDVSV

[5] = target: His6-tagged kinase domain of B-Raf (human, UniProt P15056 457-717)
Sequence of His6-tagged kinase domain of B-Raf (P15056 457-717): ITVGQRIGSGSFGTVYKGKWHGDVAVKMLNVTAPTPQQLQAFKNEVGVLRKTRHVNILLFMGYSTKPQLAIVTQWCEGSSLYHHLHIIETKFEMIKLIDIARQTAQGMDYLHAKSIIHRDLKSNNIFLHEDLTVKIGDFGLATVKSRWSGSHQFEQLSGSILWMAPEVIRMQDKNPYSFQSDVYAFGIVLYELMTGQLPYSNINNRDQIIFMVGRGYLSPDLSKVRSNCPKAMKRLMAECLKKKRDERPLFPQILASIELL

Sequence of His6-tagged kinase domain of B-Raf (human) (P15056 457-717): as above

stoichiometry N (Hsp90 per B-Raf) [1]: 2 | stoichiometry N (Hsp90 per Cdc37) (human Cdc37 (human) [2]): 2 | stoichiometry N (Hsp90 per Cdc37) (human Cdc37 (human) [3]): 2
Molecule: Spodoptera frugiperda Hsp90 homologue (natural protein)

stoichiometry N (Cdc37 chains in the oligomer) [4]: 2
B1: human Cdc37, Q16543 1-378 (natural protein)
chain: T1 chain
modifications: here or on the partner: phosphoserine at 13 (pSer 13); phosphoserine at 13 (pSer 13)

stoichiometry N [5]: 1 Cdc37 per B-Raf
B2: human Cdc37 (natural protein, UniProt Q16543 1-378, looked up)
chain: T1 chain
modifications: phosphoserine at 13 (pSer 13)
